Test results taken from IntAct's records for PubMed 24290140.

Target: Fhl1, P97447-2
Sequence (P97447 other isoform, or with tags, fused parts or gaps): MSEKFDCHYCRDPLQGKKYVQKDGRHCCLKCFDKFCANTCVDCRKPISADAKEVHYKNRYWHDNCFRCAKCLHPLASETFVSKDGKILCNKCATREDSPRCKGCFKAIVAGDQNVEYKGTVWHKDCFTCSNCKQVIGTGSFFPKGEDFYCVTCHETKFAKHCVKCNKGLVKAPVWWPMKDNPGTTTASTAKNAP

Sequence of Recombining binding protein suppressor of hairless (Mus musculus), P31266 F261R (P31266 whole entry F261R): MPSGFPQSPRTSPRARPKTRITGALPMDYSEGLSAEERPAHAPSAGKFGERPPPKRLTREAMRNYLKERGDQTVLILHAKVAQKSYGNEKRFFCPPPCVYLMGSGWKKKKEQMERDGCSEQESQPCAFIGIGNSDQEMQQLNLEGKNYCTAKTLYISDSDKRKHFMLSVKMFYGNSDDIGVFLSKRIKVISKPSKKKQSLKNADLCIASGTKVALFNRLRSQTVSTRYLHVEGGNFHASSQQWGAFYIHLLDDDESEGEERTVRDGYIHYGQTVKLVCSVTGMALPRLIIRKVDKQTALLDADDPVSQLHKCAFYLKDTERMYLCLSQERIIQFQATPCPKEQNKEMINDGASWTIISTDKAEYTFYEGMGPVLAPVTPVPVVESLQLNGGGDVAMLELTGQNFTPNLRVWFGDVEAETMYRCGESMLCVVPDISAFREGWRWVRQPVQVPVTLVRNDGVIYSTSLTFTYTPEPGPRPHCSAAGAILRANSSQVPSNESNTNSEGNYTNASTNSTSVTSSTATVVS
Sequence of Recombining binding protein suppressor of hairless (Mus musculus), P31266 A284R (P31266 whole entry A284R): as the sequence (P31266 whole entry F261R) above, with R261F, A284R counted along it

| effect of a mutation on the interaction | Substance |
| --- | --- |
| decreasing interaction strength | Recombining binding protein suppressor of hairless (Mus musculus), P31266 F261R |
| decreasing interaction strength | Recombining binding protein suppressor of hairless (Mus musculus), P31266 A284R |
